Assay results reported in the DeepSol protein solubility set.

Assay: soluble on expression in E. coli; label from the status in PepcDB or PDB records

Sequence | soluble on expression in E. coli
MIDVPFLKNVTLKKENIPSFSAYPYCLPAIRTLQSLAFHPNVTFIIGENGTGKSTLLEGIAIALGFNAEGGTKNFRFSTNDSHSSLHEYLRISKSFNTPSDGFFLRAESFYNVASYIDEIDADLEARGNPVIDSYGGISLHEQSHGESFFSLFMNRFSGQGLYILDEPEAALSPMRQLSMLIRMHELAEQGSQFVIATHSPILMAYPESTIYSLTQEGIQESALEDTEHYQTTKLFFENRDRLFHHLFNSLEHHHHHH | soluble
MIDVRKYIDNAALKPHLSEKEIEEFVLKSEELGIYAVCVNPYHVKLASSIAKKVKVCCVIGFPLGLNKTSVKVKEAVEAVRDGAQELDIVWNLSAFKSEKYDFVVEELKEIFRETPSAVHKVIVETPYLNEEEIKKAVEICIEAGADFIKTSTGFAPRGTTLEEVRLIKSSAKGRIKVKASGGIRDLETAISMIEAGADRIGTSSGISIAEEFLKRHLILEHHHHHH | soluble
MIEADYLVIGAGIAGASTGYWLSAHGRVVVLEREAQPGYHSTGRSAAHYTVAYGTPQVRALTAASRAFFDNPPAGFCEHPLLSPRPEMVVDFSDDPEELRRQYESGKALVPQMRLLDAEQACSIVPVLRRDKVFGATYDPTGADIDTDALHQGYLRGIRRNQGQVLCNHEALEIRRVDGAWEVRCDAGSYRAAVLVNAAGAWCDAIAGLAGVRPLGLQPKRRSAFIFAPPPGIDCHDWPMLVSLDESFYLKPDAGMLLGSPANADPVEAHDVQPEQLDIATGMYLIEEATTLTIRRPEHTWAGLRSFVADGDLVAGYAANAEGFFWVAAQGGYGIQTSAAMGEASAALIRHQPLPAHLREHGLDEAMLSPRRLSPLEHHHHHH | not soluble
MIEFHNVHKTYRVAGKEIPALHPTNLRVDDGQVFGIIGHSGAGKSTLLRLINRLETPSGGQIVVDGEDVTALDANGLRRFRQQVGMIFQHFNLLASRTVADNVAMPLTLAGDMPRKQIDQRVAELLERVGLSDHAKKYPAQLSGGQKQRVGIARALATKPKILLCDEATSALDPQTTASVLQLLAEINRELKLTIVLITHEMDVIRRVCDQVAVMDAGVIVEQGKVADVFLHPQHSTTKRFVQEDDQVDENEQRDDFAHVQGRIVRLTFQGDATYAPLLGTVARETGVDYSILAGRIDRIKDTPYGQLTLAITGGDMDAAFARFTAADVHMEVLR | not soluble
MIEGIIEEIRTNGSFLITTHENPDGDAVGSSLALAGYLRRLGKDVTIHFCDPVPDLYAFLPLAEEVTRTVPDRDYDICFVLDVGEFRRAGKQIAECKRIKKFINIDHHLTSDNFGFINYIDPKAAATGILVHRIITGAGDVVGYETALCLYTAIITDTGSFRYSNANPEAFAIAGELVSTGINTWSIAEKLYESQPRERLELLALALSTLTISPRGEYASITVTLDMYNKTGASAELTDGFVNYPRSIRGVEVSVFFREINPGLFKVGFRSKGKIDVSRIAAAFGGGGHHNAAGATMNGSLEGIKATLFSHLESTLLEHHHHHH | not soluble
MIELKEVVKEYRTKNKEVLAVDHVNLSIRAGSIYGVIGFSGAGKSTLIRMFNHLEAPTSGEVIIDGDHIGQLSKNGLRAKRQKVNMIFQHFNLLWSRTVLKNIMFPLEIAGVPRRRAKQKALELVELVGLKGREKAYPSELSGGQKQRVGIARALANDPTVLLCDEATSALDPQTTDEILDLLLKIREQQNLTIVLITHEMHVIRRICDEVAVMESGKVIEHGPVTQVFENPQHTVTKRFVKEDLNDDFETSLTELEPLEKDAYIVRLVFAGSTTTEPIVSSLSTAYDIKINILEANIKNTKNGTVGFLVLHIPYISSVDFGKFEKELIERQVKMEVLRHG | not soluble
MIETAIYGKTVDDQSRCVHWHLPKDVIAIRFKCCDKYYACFECHQELSSHPLEKYDLLDDANKHLIICGVCRHEMTFAEYYDYNSNLICPNCRSPFNPGCKLHYHLYFQNPPPAMC | not soluble
MIEYTSGDILRCEADALVNTVNCVGVMGRGIALQFKNMYPANFKAYEAACKREEVQPGRMFVFETKQLTPPRLIINFPTKRHWRGKSRIEDIEAGLVDLVNVIRDKNIRSIAIPPLGAGLGGLDWKEVRPRIEHALGELEGVQVIVYEPNGAPASDKMAHVREVPKMTSGRAALVELMQRYLSGLLDPFVTLLEVHKLMYFMQEAGEPLRLDYIKHHYGPYAKNLRHVLNAIEGHLIAGYADGGDAPDKPLSLVPGAVAEAKSFLDQHEISRARFERVTRLVEGFESPYGLELLATVHWVIHREGATQSDSVKRQIYQWNDRKRQFTQRQLVIAEERLRSQGWLSPETTFTYMAGDPLEHHHHHH | not soluble
MIFDKNFSYAFDENACEKCGGKCCTGESGNIFASKEELEVLRKHLNLESKEFAEKYLRKVGFKMSFKEVECEDGFACIFFDTQKRNCSIYDFRPKQCRTFPFWEYFKTHQKELEKECIGICYLSLEHHHHHH | not soluble
MIFEKAVIVDLRTQVLDVPVQETITKDNVPVRVNAVVYFRVVDPVKAVTQVKNYIMATSQISQTTLRSVIGQAHLDELLSERDKLNMQLQRIIDEATDPWGIKVTAVEIKDVELPAGMQKAMARQAEAERERRARITLAEAERQAAEKLREAAEIISEHPMALQLRTLQTISDVAGDKSNLEHHHHHH | soluble
MIFTYNREHVGDTLMVIVKDSQGAKLDVDRRGQVARVYLQDSKETVAWNIFEVSSLIVIEGAGQITLSDQDIKILNAELLKEGFEDSLVNNIEPTFVVAQIKEIIDHPDSDHLHICQAEINDGKTVQIVCGAPNASVGLKTVAALPGAMMPNGSLIFPGKLRGEDSFGMLCSARELALPNAPQVRGIIELSDQVIVGESFDANKHWKNLEHHHHHH | soluble
MIFVLDVGNTNAVLGVFEEGELRQHWRMETDRHKTEDEYGMLVKQLLEHEGLSFEDVKGIIVSSVVPPIMFALERMCEKYFKIKPLVVGPGIKTGLNIKYENPREVGADRIVNAVAGIHLYGSPLIIVDFGTATTYCYINEEKHYMGGVITPGIMISAEALYSRAAKLPRIEITKPSSVVGKNTVSAMQSGILYGYVGQVEGIVKRMKEEARQEPKVIATGGLAKLISEESNVIDIVDPFLTLKGLYMLYERNANLQHEKGE | not soluble
MIGIVMLSKIANIDAARQGLDLKVKVLSLNKKTIKNDRGETTYFYGIIGDDTGTVSFTAWSFPAAVKSGDVVEIKNCYSSLYNGKIRIYVDSRSQVVLKPDEYLEVKRTVELVKLRDLSLTTPYVSVIGRISGIKEKNYDSDRGSKIVYQGFIEDETAKVRISSFGKPLKDGEIVRVENARVSQYNGYMGISIGENSSIDNVQAQIEVGSRPIFIAEIKSPIGGVTITGFAVSVGQGSRIFTKCSICKKILEDGKCKDHPRAPVYLDIFGYFLLSDGTGSLTCYLNKDSFLPYIKMDTEEFKSQAFSMNPNMLIKKNILGKCLSVTGDLRLRDDKITMNASSIKEADADSVKDIEKTIQEEFQLEHHHHHH | not soluble
MIGNILVAHGMRKGNQNEALEEFIGTLLKDEQYYYELAFLESETQNLEIIMEKMIKQGITKFRIVPLLIFSAMHYISDIPQILKEMKARYPQIDSKMSAPLGTHPYMKTLVENRIAEEKVSEGSTKATIVIAHGNGSGRFTKAHDELKAFVKTLDSHHPVYARALYGTLAFKNDLDKISEQYDELVIVPLFLFDGRLVNKVKRLLGEMTLHSQLHITPSINFDPILRLIIRERLEALDILEHHHHHH | soluble
MIHLARRRIVLTTPYFVPDEATLSALRIAGTSGVDVQLILSESNNQFLMAWAQEAYFEELLRAGIKIALYRPHFLHAKHLSVDDDIALFGSINLDIRSFALNAEIGMICYDSRIVTQLREVESDYLANARQLNLVEWQQRPAWRRSREGIARLADALM | not soluble
MIHVGTCGFCEAREKYFKDFDAVEVQQTFYKVLQEKTLERWRKKAPEEFTFSIKAFQGVTHPSNSPTWRRSNVKPSKNVGLLRPTNEVLHYWRITLKEAKVLGARFILIQLPRSFKEGEESFENAEKFFNAIDRGDFEIGVELRGWSEKGVKRFVREFDVIDVTDPLLRIPLHKGSVNYYRLHGKYEGGKIIYNHSYSDEELKKIRERVLGWNVEESFVFFNNTSMCRDAKRFKLILDLH | soluble
MIIDIHGHYTTAPKALEDWRNRQIAGIKDPSVMPKVSELKISDDELQASIIENQLKKMQERGSDLTVFSPRASFMAHHIGDFNVSSTWAAICNELCYRVSQLFPDNFIGAAMLPQSPGVDPKTCIPELEKCVKEYGFVAINLNPDPSGGHWTSPPLTDRIWYPIYEKMVELEIPAMIHVSTSCNTCFHTTGAHYLNADTTAFMQCVAGDLFKDFPELKFVIPHGGGAVPYHWGRFRGLAQEMKKPLLEDHVLNNIFFDTCVYHQPGIDLLNTVIPVDNVLFASEMIGAVRGIDPRTGFYYDDTKRYIEASTILTPEEKQQIYEGNARRVYPRLDAALKAKGKAAALEHHHHHH | not soluble
MIIGLLNQKGGVGKTTLSVNLAASFARTGARVLLIDVDPQGSALDWAAAREGAPLFPVVGLPRATVHKEITQIGHNYDHIIIDGPPRVTDLARSALMASDFVLIPVQPSPYDIWAADGIVKLIDEARVYKENLKSAFVINRKIVNTAIGRDVGEALGVYPVHVLSANVAQRVIFAEAATQGKTVYEVDKQGLAAAEIEAVAAEIKELAQLEHHHHHH | not soluble
MIIRETERLILREWKESDRDLFREINADEKVMEFFPFRRSHAEADAVLETINGMIRGSGYGFYAMELRETGEVMGFCGISPVMNLDPPFPIGTMEIGWRLATRFWGHGYVTEAAQSLLVMAFDEKETPEIVSFAVHDNHRSTAVMERIGLRRDPSRDFDHPRVPEETHPHLRPHVTYALTLEEWRAR | not soluble
MIITVASFKGGVGKTTTAVHLSAYLALQGETLLIDGDPNRSATGWGKRGSLPFKVVDERQAAKYAPKYQNIVIDTQARPEDEDLEALADGCDLLVIPSTPDALALDALILTIETLQKLGNNRFRILLTIIPPYPSKDGDEARQLLTTAGLPLFKRGIKRYSAFQKASLNGVVVSEVSDSKAGIAWSDYKATGKEIVEEILILEHHHHHH | soluble
MIKDILNTIASLVEENVVVFASERGKQLLQKVKADLVSFKPINFYALDAGKQITDALKLIESYCIEMNRIFDELNHQSSVSLANEKLTHKIKNILTNLKNKQNKITQLREKIPEGMLDIKRALYIVENSFLSESEPEEKELRSKFKRIKKFMSNSNKEYLDLIKKGGLLNTVLLDTTTLYWNQLHEYSTLLNQCRITLQKSHHLTKEGQLALRCFNSAIQKMPPKKHIINALKILNKPNSKTEAIEKIGFVSPHGREACMQLTCWGKKFFYIPRSEEMYHFDYDPKEDLNETGGNCFGESMMFIHFLSKGAIRWLCPEAGLINFQLDQTRNLKFKKATLGEGETLVSDNSPHDSLEWEDMRPVLLDNPYFKPGSLCGVIFSMNDYTKAKREFTAGHMIVVAKLDTNLNPYKYIIYEKDFGAFGLTDDESLEYLISEQILPLYRGMNYSKIKLVKYGEASTETYDLLNKIKPQTGIPQKESTASDSINTYFDNAFFKLSKETNKENVIDQVNQTDVFGFCRN | not soluble
MIKDQDAEFHVTDSDPTWAETNFFGFFNAEHKLNVGVYALFRPNLGVVSSTICMNSGRAVTPWEADFCDLRSAMPIPTPRSLLDYKLLNTLHVHCLDPNRVWHIGYDDQQGTRIDVRYEALMPAFDIHDPEMDPMCGSESEAGKFAWGTAYDGHFDQTGHFKGSVAIRGREVPIDCVSTMDHSWGARPERGKPNMSWLHAHFSKDLAVHGIFGFDQTRNGVELWLAHGYVMERGRIVGLKAGTGQVERPQERYPEQLQLQVTDAKDRVWKLRGRALTTFPWQCWPNMISFNSLCAWEMNGLKGHGEVQDFFELPQLNALNSVESTRRPSRPL | not soluble
